Assay results published in paper PMC10154249, “Unique progerin C-terminal peptide ameliorates Hutchinson–Gilford progeria syndrome phenotype by rescuing BUBR1” (Nature Aging, 2023).

B1: progerin (protein)
chain: METPSQRRATRSGAQASSTPLSPTRITRLQEKEDLQELNDRLAVYIDRVRSLETENAGLRLRITESEEVVSREVSGIKAAYEAELGDARKTLDSVAKERARLQLELSKVREEFKELKARNTKKEGDLIAAQARLKDLEALLNSKEAALSTALSEKRTLEGELHDLRGQVAKLEAALGEAKKQLQDEMLRRVDAENRLQTMKEELDFQKNIYSEELRETKRRHETRLVEIDNGKQREFESRLADALQELRAQHEDQVEQYKKELEKTYSAKLDNARQSAERNSNLVGAAHEELQQSRIRIDSLSAQLSQLQKQLAAKEAKLRDLEDSLARERDTSRRLLAEKEREMAEMRARMQQQLDEYQELLDIKLALDMEIHAYRKLLEGEEERLRLSPSPTSQRSRGRASSHSSQTQGGGSVTKKRKLESTESRSSFSQHARTSGRVAVEEVDEEGKFVRLRNKSNEDQSMGNWQIKRQNGDDPLLTYRFPPKFTLKAGQVVTIWAAGAGATHSPPTDLVWKAQNTWGCGNSLRTALINSTGEEVAMRKLVRSVTVVEDDEDEDGDDLLHHHHGSHCSSSGDPAEYNLRSRTVLCGTCGQPADKASASGSGAQSPQNCSIM
modifications: left off: GST, end not stated, kept
B2: mVenus-progerin (protein)
chain: B1 chain
modifications: left off: mVenus, end not stated, kept

Experiments:
[1] = system: IMR90 cells; assay: Ki67 immunofluorescence of IMR90 cells; assay type: cell-based, human; settings: Fig.1k, IMR90, Vector 67, 75, 60, P vs Vector: BUBR1 0.803, progerin 0.0018
Method: (§1) Immunofluorescence was performed as described previously. Cells were plated on cover slips in 12-well plates, left overnight before the treatment. Cells were fixed in 1% formaldehyde in culture medium for 10 min at 37 °C and permeabilized with 0.2% Triton X-100 in PBS for 10 min at room temperature. Cells were washed twice in PBS and blocked for 1 h with 5% BSA in PBS and then incubated with primary antibodies at 4 °C overnight, washed three times in PBS and incubated with secondary antibodies for 1 h at room temperature. Cell nuclei were counterstained with a 500 nM concentration of 4,6-diamidino-2-phenylindole (DAPI) (Sigma). Images were acquired by a fluorescence microscope (OLYMPUS FV-1000, Carl Zeiss LSM880 or Leica DMi8) and analyzed with software NIS-Elements AR v.5.0.1 (Nikon), FLUOVIEW v.4.2b (OLYMPUS), ZEN v.2.3 SP1 (Carl Zeiss) and Leica Application Suite X v.3.6.0.24 (Leica). Cells were quantified by investigators who were blinded to the identity of the analyzed cell.

[2] = system: PTBP1–BUBR1 mRNA 3′-UTR; assay: RIP assay of PTBP1 and BUBR1 mRNA 3′-UTR in HEK-293T cells; assay type: cell-based; settings: Fig. 4n, PTBP1+progerin, P=0.0002 vs PTBP1
Method: RIP and RNA pulldown assays were performed as previously described. The RIP experiment was carried out using the EZ-Magna RIP Kit (Millipore, catalog no. 17-701). The coprecipitated RNAs were extracted through Trizol reagent and detected by RT-PCR. The primer sequences for PCR, synthesized by Comate Bioscience, were as follows:
BUBR1-3′UTR_fwd (5′-[…]-3′) and BUBR1-3′UTR_rev (5′- […]-3′).

[3] = system: BUBR1 kinetochore localization in H1299 cells; assay: Immunofluorescence, abnormal localization of BUBR1 in H1299 cells; assay type: cell-based; settings: Fig. 3h, H1299, Vector 7, 11, 14, P=0.0008 vs Vector
Method: as §1

[4] = system: IMR90 and HGADFN003 cells; assay: Metaphase chromosome spread assay, aneuploid cells; assay type: cell-based, human; settings: Fig.1p, IMR90, Vector 6, 5, 8
Method: For the metaphase chromosome spread assay, 1.5 × 10^6 cells were seeded in a 6 cm dish and incubated for 24 h with fresh medium. Then, colchicine was added to a final concentration of 0.2 μg ml^–1 and the cells were incubated at 37 °C for 2 h. After digestion, we collected and rinsed the cells with PBS. The cells were centrifuged at 160g for 10 min. Then, 1 M KCl was added to a final concentration of 0.075 mol l^–1 and the samples were incubated at 37 °C for 20 min. The cells were centrifuged, and the supernatant aspirated. The pellet was resuspended, and 1 ml methanol:glacial acetic acid (3:1) solution was added. The sample was rested at room temperature for 10 min. Then, the cells were centrifuged at 160g for 10 min. The supernatant was aspirated, and the pellet resuspended in 1 ml fixative for 30 min. The cells were centrifuged and the pellet was suspended in 1 ml fixative again for 30 min. The cells were centrifuged at 160g for 10 min and the supernatant aspirated. The pellet was then resuspended in a small volume of fixative (typically less than 500 μl) until the cell suspension appeared lightly milky. A small quantity of the cell suspension was held vertically in a pipette with the end about 10 cm above the slide. A single drop was released from this height onto the slide and allowed to air dry. The cells were then incubated with 500 nM of DAPI (Invitrogen) for 10 min. Slides were examined with an Olympus BX53 fluorescence microscope and the images were captured by using the Olympus IPP v.7.0 software. Aneuploid cells were quantified by investigators who were blinded to the identity of the analyzed cell.

[5] = system: IMR90 cells; assay: SA-β-gal staining of IMR90 cells (progerin, BUBR1, shBUBR1); assay type: cell-based, human; settings: Fig.1i
Method: SA-β-gal staining was performed as previously described. Cells were fixed in 0.5% glutaraldehyde for 15 min at room temperature, washed three times with PBS (pH 6.0) containing 1 mM MgCl2 and exposed overnight 37 °C to containing 1 mg ml^–1 5-bromo-4-chloro-3-indolyl-β-D-galactopyranoside (MCE, catalog no. HY-15934), 0.12 mM potassium ferrocyanide (Sigma, catalog no. P3289), 0.12 mM potassium ferricyanide (Sigma, catalog no. P8131) and 1 mM MgCl2 PBS buffer (pH 6.0). Cells were washed three times with H2O and observed under a microscope (OLYMPUS CKX53). SA-β-gal positive cells were quantified by investigators who were blinded to the identity of the analyzed cell.

[6] = system: BUBR1; assay: BUBR1 nuclear membrane localization in IMR90, HGADFN003 or H1299 cells; assay type: cell-based, human; settings: Fig. 2c
Method: as §1

Molecule | Relative percentage of Ki67 positive cells ([1]; replicate 1) [%] | Relative percentage of Ki67 positive cells ([1]; replicate 2) [%] | Relative percentage of Ki67 positive cells ([1]; replicate 3) [%] | PTBP1 enrichment on BUBR1-3'UTR (2-ΔΔCt) ([2]; replicate 1) | PTBP1 enrichment on BUBR1-3'UTR (2-ΔΔCt) ([2]; replicate 2) | PTBP1 enrichment on BUBR1-3'UTR (2-ΔΔCt) ([2]; replicate 3) | Relative percentage of the number of abnormal localization cells of BUBR1 ([3]; replicate 1) [%] | Relative percentage of the number of abnormal localization cells of BUBR1 ([3]; replicate 2) [%] | Relative percentage of the number of abnormal localization cells of BUBR1 ([3]; replicate 3) [%] | Relative percentage of aneuploid cells ([4]; replicate 1) [%] | Relative percentage of aneuploid cells ([4]; replicate 2) [%] | Relative percentage of aneuploid cells ([4]; replicate 3) [%] | Relative percentage of SA-β-gal positive cells ([5]; Vector 2, 1, 2, P vs Vector: BUBR1 0.2302, progerin 0.0003, replicate 1) [%] | Relative percentage of SA-β-gal positive cells ([5]; Vector 2, 1, 2, P vs Vector: BUBR1 0.2302, progerin 0.0003, replicate 2) [%] | Relative percentage of SA-β-gal positive cells ([5]; Vector 2, 1, 2, P vs Vector: BUBR1 0.2302, progerin 0.0003, replicate 3) [%] | BUBR1 nuclear membrane localization of injected cells ([6]; mVenus 1, 2, 2, P<0.0001, replicate 1) [%] | BUBR1 nuclear membrane localization of injected cells ([6]; mVenus 1, 2, 2, P<0.0001, replicate 2) [%] | BUBR1 nuclear membrane localization of injected cells ([6]; mVenus 1, 2, 2, P<0.0001, replicate 3) [%]
B1 | 27 | 31 | 35 | 8.488 | 7.488 | 7.699 | 38 | 37 | 32 | 42 | 38 | 46 | 40 | 50 | 39 |  |  | 
B2 |  |  |  |  |  |  |  |  |  |  |  |  |  |  |  | 97 | 95 | 94
